Measured values reported in PMC9468648, “Profiling of transcriptional regulators associated with starch biosynthesis in sorghum (Sorghum bicolor L.)”.

Legend:
Experiment in all cases: EMSA; Chemiluminescent EMSA Kit (Beyotime) per manufacturer's instructions; buffer, salt, pH and temperature not stated
Conditions in all cases: protein: recombinant; tags: His (pET32a fusion); chain copies: 2; label: 5' biotin; blunt
[1] = molecular target: T1, SORBI_3005G056300 (NAC TF) (UniProt C5Y5Q6 1-283)
T1 sequence: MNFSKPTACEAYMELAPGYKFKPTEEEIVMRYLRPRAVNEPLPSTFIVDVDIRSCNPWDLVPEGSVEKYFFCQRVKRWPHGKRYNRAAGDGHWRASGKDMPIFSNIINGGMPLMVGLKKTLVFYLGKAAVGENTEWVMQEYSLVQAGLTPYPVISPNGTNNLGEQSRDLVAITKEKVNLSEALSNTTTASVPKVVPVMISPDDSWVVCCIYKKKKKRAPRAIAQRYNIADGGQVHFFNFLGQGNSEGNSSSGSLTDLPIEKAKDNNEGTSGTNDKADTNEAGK

[2] = molecular target: T2, SORBI_3003G105600 (NAC TF) (UniProt C5XF21 1-400)
T2 sequence: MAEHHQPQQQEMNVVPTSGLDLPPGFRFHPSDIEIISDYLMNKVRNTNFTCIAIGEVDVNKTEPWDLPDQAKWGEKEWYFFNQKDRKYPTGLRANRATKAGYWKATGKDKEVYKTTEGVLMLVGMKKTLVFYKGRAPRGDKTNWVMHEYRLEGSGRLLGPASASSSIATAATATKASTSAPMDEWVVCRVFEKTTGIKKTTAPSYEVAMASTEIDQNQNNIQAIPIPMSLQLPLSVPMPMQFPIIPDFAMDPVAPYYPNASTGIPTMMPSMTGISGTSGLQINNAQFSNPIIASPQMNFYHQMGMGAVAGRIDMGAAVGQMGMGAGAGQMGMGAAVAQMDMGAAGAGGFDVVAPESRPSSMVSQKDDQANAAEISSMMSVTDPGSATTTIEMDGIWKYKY

[3] = molecular target: T3, SORBI_3009G086800 (NAC TF) (UniProt C5YV73 1-402)
T3 sequence: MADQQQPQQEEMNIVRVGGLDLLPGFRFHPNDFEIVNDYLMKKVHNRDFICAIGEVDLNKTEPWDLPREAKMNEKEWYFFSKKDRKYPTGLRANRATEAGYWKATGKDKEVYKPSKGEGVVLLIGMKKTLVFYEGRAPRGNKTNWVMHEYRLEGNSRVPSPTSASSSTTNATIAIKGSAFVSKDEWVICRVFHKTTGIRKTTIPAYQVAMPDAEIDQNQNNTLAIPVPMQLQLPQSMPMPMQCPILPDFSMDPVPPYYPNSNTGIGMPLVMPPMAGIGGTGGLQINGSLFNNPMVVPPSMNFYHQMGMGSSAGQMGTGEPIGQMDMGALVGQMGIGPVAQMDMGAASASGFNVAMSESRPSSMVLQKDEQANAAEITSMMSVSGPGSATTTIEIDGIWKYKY

Measured: binding result

B1: 4x CACGCAA repeat probe (dsDNA)
DNA 1: TCACGCAACACGCAACACGCAACACGCAAG
DNA 2: CTTGCGTGTTGCGTGTTGCGTGTTGCGTGA
binds: [1] | [2] | [3]
